B1: E3 ubiquitin-protein ligase NHLRC1 (Homo sapiens), Q6VVB1 (parent)
chain: MAAEASESGPALHELMREAEISLLECKVCFEKFGHRQQRRPRNLSCGHVVCLACVAALAHPRTLALECPFCRRACRGCDTSDCLPVLHLIELLGSALRQSPAAHRAAPSAPGALTCHHTFGGWGTLVNPTGLALCPKTGRVVVVHDGRRRVKIFDSGGGCAHQFGEKGDAAQDIRYPVDVTITNDCHVVVTDAGDRSIKVFDFFGQIKLVIGGQFSLPWGVETTPQNGIVVTDAEAGSLHLLDVDFAEGVLRRTERLQAHLCNPRGVAVSWLTGAIAVLEHPLALGTGVCSTRVKVFSSSMQLVGQVDTFGLSLYFPSKITASAVTFDHQGNVIVADTSGPAILCLGKPEEFPVPKPMVTHGLSHPVALTFTKENSLLVLDTASHSIKVYKVDWG
partner: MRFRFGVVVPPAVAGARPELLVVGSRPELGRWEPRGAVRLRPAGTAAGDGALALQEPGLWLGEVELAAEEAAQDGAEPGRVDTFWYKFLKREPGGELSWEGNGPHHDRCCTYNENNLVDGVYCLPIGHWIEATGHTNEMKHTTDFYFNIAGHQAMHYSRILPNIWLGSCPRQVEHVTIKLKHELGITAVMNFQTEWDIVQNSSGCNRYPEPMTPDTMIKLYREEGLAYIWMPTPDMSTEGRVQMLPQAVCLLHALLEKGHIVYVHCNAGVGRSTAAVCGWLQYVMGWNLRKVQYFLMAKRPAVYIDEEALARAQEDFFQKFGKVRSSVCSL

Variants of: B1
Conditions: with epm2a_human EPM2A

Row | Variant | effect of a mutation on the interaction
1 | C46Y | disrupting interaction
2 | L261P | disrupting interaction
3 | D146N | decreasing interaction
4 | P69A | decreasing interaction

— IntAct's records for PubMed 21505799
